In patent publication US20240190989A1 (BEIGENE SWITZERLAND, published 2024):
Numbering of substitutions follows the chain as printed. Several values for one entry are separate records, joined by “and”; a condition that tells them apart may be missing. Identical values can stand only once.

What was measured:
[1] = molecular target: T1, cyno CD137 ECD-mIgG2a (monkey (Macaca mulatta gene; called …); test: SPR, Monkey CD137
T1 chain: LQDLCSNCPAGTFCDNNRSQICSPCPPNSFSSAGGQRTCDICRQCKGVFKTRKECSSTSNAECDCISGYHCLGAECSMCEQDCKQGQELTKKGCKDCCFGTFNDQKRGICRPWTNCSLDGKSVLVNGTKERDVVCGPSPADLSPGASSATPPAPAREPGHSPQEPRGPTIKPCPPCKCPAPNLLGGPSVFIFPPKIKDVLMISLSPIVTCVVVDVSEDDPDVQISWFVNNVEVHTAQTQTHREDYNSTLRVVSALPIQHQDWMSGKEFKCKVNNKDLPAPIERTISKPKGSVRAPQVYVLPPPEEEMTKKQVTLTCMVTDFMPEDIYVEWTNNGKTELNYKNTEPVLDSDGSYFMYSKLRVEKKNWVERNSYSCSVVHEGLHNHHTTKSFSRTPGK

[2] = molecular target: T2, full-length human CD137 on cells (Hut78/huCD137, HEK293 transfectants, JK-NFKB-CD137) (human, UniProt Q07011 24-255); test: FACS on HuT78/CD137 cells
T2 construct: also called native CD137; TNFRSF9

[3] = molecular target: T3, human CD137 ECD-mIgG2a (human); test: SPR, Human CD137
T3 construct: ECD 24-183 of huCD137 fused to mouse IgG2a Fc; also called huCD137-mIgG2a; huCD137

[4] = molecular target: T3, human CD137 ECD-mIgG2a; test: antigen ELISA on huCD137-mIgG2a [panel B]
[5] = molecular target: T4, mouse CD137 (recombinant protein, SPR) (mouse, UniProt P20334 24-187, limits assumed); test: SPR
T4 construct: also called murine CD137
T4 sequence (looked up): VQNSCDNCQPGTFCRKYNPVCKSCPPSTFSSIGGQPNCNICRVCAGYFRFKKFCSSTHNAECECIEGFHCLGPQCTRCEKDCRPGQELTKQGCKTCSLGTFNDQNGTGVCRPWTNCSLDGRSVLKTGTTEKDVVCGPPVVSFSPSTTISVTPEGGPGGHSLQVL

[6] = molecular target: T2, full-length human CD137 on cells …; test: cell-based or functional assay
[7] = molecular target: FcγRI (UniProt P12314 16-288, limits assumed); test: ELISA-based FcγR binding, luminescence read-out (RLU)
[8] = molecular target: FcγRIIIAF158 (UniProt P08637 17-208); test: as above
[9] = molecular target: T5, FcγRIIAH131 (UniProt P12318 34-218); test: as above
T5 sequence (looked up): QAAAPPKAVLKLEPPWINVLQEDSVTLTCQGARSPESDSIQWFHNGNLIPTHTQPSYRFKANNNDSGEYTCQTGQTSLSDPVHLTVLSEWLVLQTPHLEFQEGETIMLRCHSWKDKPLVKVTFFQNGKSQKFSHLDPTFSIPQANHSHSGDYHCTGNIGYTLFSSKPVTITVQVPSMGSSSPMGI

[10] = molecular target: FcγRIIIAV158 (UniProt P08637 17-208); test: as above
[11] = molecular target: T6, FcγRIIAR131 (UniProt P12318 34-218); test: as above
T6 sequence (looked up): T5 sequence (looked up) with H134R

[12] = molecular target: FcγRIIIB (UniProt O75015 17-200, limits assumed); test: as above
[13] = molecular target: T7, FcγRIIB (UniProt P31994 43-217, limits assumed); test: as above
T7 sequence (looked up): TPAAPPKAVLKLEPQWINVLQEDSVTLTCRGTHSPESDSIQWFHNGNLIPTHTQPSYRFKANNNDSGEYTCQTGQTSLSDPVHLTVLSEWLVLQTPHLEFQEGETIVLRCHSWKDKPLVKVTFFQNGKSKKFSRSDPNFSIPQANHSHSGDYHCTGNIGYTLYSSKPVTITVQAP

[14] = molecular target: T8, cynoCEA (Cat. CE5-C52H5, Acrobiosystem) (cynomolgus monkey); test: SPR, Monkey CEA
T8 construct: Bought protein; also called Monkey CEA

T2 sequence (Q07011 24-255 limits assumed): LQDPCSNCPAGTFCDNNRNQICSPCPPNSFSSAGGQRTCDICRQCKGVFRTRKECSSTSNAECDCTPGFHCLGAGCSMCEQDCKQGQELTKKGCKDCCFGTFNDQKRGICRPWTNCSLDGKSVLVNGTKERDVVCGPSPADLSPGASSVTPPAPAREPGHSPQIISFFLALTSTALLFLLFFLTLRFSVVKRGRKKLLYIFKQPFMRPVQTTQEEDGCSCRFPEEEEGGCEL
Sequence of FcγRIIIAV158 (P08637 17-208 F176V): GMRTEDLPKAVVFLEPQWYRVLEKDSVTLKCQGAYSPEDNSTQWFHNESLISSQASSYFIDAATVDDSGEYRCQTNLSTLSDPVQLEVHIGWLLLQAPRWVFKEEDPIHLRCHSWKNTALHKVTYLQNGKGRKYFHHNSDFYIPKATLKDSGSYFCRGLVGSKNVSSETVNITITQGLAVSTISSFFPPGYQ
Sequence of FcγRI (P12314 16-288 limits assumed): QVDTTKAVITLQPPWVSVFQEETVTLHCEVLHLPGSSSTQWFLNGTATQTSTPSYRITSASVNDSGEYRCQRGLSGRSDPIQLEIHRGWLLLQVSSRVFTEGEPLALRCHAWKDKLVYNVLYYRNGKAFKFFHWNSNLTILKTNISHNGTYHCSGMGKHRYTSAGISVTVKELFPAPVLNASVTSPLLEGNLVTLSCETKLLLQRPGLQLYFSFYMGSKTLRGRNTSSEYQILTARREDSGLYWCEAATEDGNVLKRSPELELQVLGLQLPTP
Sequence of FcγRIIIAF158 (P08637 17-208): as the sequence (P08637 17-208 F176V) above, with V160F counted along it
Sequence of FcγRIIIB (O75015 17-200 limits assumed): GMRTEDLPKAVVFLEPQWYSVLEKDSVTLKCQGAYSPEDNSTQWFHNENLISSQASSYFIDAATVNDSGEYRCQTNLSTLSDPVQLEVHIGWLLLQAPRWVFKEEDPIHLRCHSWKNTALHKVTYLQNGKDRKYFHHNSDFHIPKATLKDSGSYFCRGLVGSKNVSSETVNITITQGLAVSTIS

B1: BE-146 (CEAxCD137 multispecific antibody) (bispecific antibody, human IgG1, kappa)
heavy: QVQLVQSGAEVKKPGASVKVSCKASGYIFTSYYLHWVRQAPGQGLEWIGYINPQTGKTSYAQKFQGRVTMTRDTSTSTVYMELSSLRSEDTAVYYCAREYGNYNYPLDYWGQGTLVTVSSASTKGPSVFPLAPSSKSTSGGTAALGCLVKDYFPEPVTVSWNSGALTSGVHTFPAVLQSSGLYSLSSVVTVPSSSLGTQTYICNVNHKPSNTKVDKKVEPKSCDKTHTCPPCPAPPAAGPSVFLFPPKPKDTLMISRTPEVTCVVVDVSHEDPEVKFNWYVDGVEVHNAKTKPREEQYNSTYRVVSVLTVLHQDWLNGKEYKCKVSNKALAAPIEKTISKAKGQPREPQVYTLPPSREEMTKNQVSLTCLVKGFYPSDIAVEWESNGQPENNYKTTPPVLDSDGSFFLYSKLTVDKSRWQQGNVFSCSVMHEALHNHYTQKSLSLSPGKGGGGSEVQLLESGGGLVQPGGSLRLSCAASGFTVSAEDVGWVRQAPGKGLEWVSAILDKGGSTYYAESVKGRFTISRDNAKNTLYLQMSSLRAEDTAVYYCARIVYHAGGGVTFDTRGQGTQVTVSS
light: DIQMTQSPSSLSASVGDRVTITCRASENQYGYLAWYQQKPGKVPKLLIYNYKNLVEGVPSRFSGSGSGTDFTLTISSLQPEDVATYYCQHHLGTPYTFGQGTKVEIKRTVAAPSVFIFPPSDEQLKSGTASVVCLLNNFYPREAKVQWKVDNALQSGNSQESVTEQDSKDSTYSLSSTLTLSKADYEKHKVYACEVTHQGLSSPVTKSFNRGEC
notes: Module ratio 2:2, Fc null version of huIgG1; copies: 2 + 2
Kd [1]: 15.9 nM | koff [1]: 0.00266 s⁻¹ | kon [1]: 167000 M⁻¹ s⁻¹ | EC50 [2]: 2.26 µg/mL and 12.9 nM | Kd [3]: 36.2 nM | koff [3]: 0.00469 s⁻¹ | kon [3]: 130000 M⁻¹ s⁻¹ | EC50 (read off the curve) [4]: ~0.08 µg/mL | binding result [5]: no binding | NF-kB luciferase reporter in JK-NFKB-CD137 cells co-cultured with CT26-OS8-CEA, EC50 [6]: 0.51 µg/mL and 2.91 nM and 0.56 µg/mL and 3.2 nM | binding result [7]: no binding (tested: not shown) | binding result [8]: no binding (tested: not shown) | binding result [9]: no binding (tested: not shown) | binding result [10]: no binding (tested: not shown) | binding result [11]: no binding (tested: not shown) | binding result [12]: no binding (tested: not shown) | binding result [13]: no binding (tested: not shown) | Kd [14]: 11.4 nM | koff [14]: 0.000717 s⁻¹ | kon [14]: 63000 M⁻¹ s⁻¹
